Experimental data published in patent US5168102A, “Endocrine manipulation to improve body composition of poultry” (priority 1990, dated 1992).
No end group written: not given here.

Key:
receptor = conditions: cited from earlier work
[1] = i.v., 21 days, cited from earlier work
[2] = injected; commercial preparations from cattle and swine pancreases; cited from earlier work
[3] = injection, finishing pigs; cited from earlier work
[4] = Example 2: plasma hormone concentrations; format: in vivo, broiler cockerels (Ross X Arbor Acre); conditions: 4 hours post-injection of 100 μg ncGH/kg BW at 4, 5 and 6 weeks
Procedure: (§1) Forty-eight 3-week-old broiler cockerels (Ross X Arbor Acre) were randomly divided into four treatment groups that contained three pens of four birds. The birds were housed in a controlled-environment room under a 20 hour light/4 hour dark cycle with feed and water provided ad libitum.
(§2) The preparation of ncGH used in this study was from the same lot used in Example 1.
(§3) Body weights and feed consumption was determined at weekly intervals although the ADG, ADFC and FTG ratio was determined over the 21 day period. […] At the conclusion of the study (6 weeks-of-age), birds were killed and the abdominal fat removed and weighed. The liver and abdominal fat were returned to the carcass which was frozen for proximate analysis as described in […]

[5] = Example 2: growth and feed efficiency, dietary T3 and ncGH injection; format: in vivo, broiler cockerels (Ross X Arbor Acre)
Procedure: as §1, §2, §3

[6] = Example 1: growth and feed efficiency of broiler cockerels fed thyroid-active substances with or without daily ncGH injection; format: in vivo, broiler cockerels (Ross X Arbor Acre strain)
Text: (§4) The purpose of this study was to determine the effect manipulating blood levels of thyroid hormones and/or growth hormone on growth performance and body composition of broiler chickens. […] Purified natural chicken growth hormone (ncGH) was obtained from the Research and Education Center, Harbor-UCLA Medical Center, Torrance, Calif. […] The premix (200 g) was then used to prepare 50 kg batches of each experimental diet according to the formula for broiler-finisher ration described in Table 1. The diet containing 0.5% PTU was prepared by mixing 250 g of PTU into 49.75 kg of the basal ration (Table 1).
(§5) Broiler cockerels (Ross X Arbor Acre strain) were raised to 3 weeks-of-age in a battery-brooder and then transferred to wire grow-out cages (4 birds/pen) held in two controlled-environment rooms (10 pens/room). Beginning at 3 weeks of age, eight birds (2 pens of 4 birds) were randomly assigned to each of 10 treatments. The chickens were provided the experimental diets and water ad libitum. […] For injection, the ncGH was reconstituted in sterile 0.025M sodium bicarbonate buffer (pH 9.8). The 10 treatments were administered for 21 days (i.e., from 3 to 6 weeks of age).
(§6) Measurement of body weight and feed consumption at weekly intervals allowed calculation of the average daily gain (ADG, g/bird/day), average daily feed consumption (ADFC, g/bird/day) and the feed-to-gain ratio (FIG, kg feed/kg gain) over the 21 day experimental period. Blood samples were taken each week (4, 5, and 6 weeks) just before (pre-injection) and 4 hours post-injection of ncGH. […] At the conclusion of the study, birds were killed and the carcasses frozen for proximate analysis. The frozen carcasses were ground in a meat grinder and aliquots of each ground carcass taken for determination of moisture, protein, fat and ash by established analytical procedures (Official Method of Analysis, Edition 13, W. Horwitz ed., Association of Official Analytical Chemist, Washington, D.C., 1980). Body composition data are presented as a percent of live weight at 6 weeks-of-age. Least squares regression analysis was used to test for significant differences (P<0.05) due treatment.

[7] = Example 1: body composition (proximate analysis of carcass); format: in vivo, broiler cockerels (Ross X Arbor Acre strain); conditions: Group 2, with daily ncGH injection, N = 8
Text: as §4, §5, §6

[8] = at the doses tested
Text: Referring now to broiler chickens as a benchmark for the beneficial effects of this invention, it must be noted that these chickens grow from a weight of 30 to 50 grams at hatching to about 1.5-3 or even as much as 5 kilograms of body weight at market age. Of this market weight, 15-20 wt.-% is protein, 2-3 wt.-% is inorganic (showing up as ash in proximate analysis of body composition), and more than 10 wt.-% (e.g. 10-20 wt.-%) is fat, which means that the protein:fat ratio (by weight) is likely to be at or below 1.5:1 and certainly well below 2:1.

[9] = Example 2: final body weight, liver, abdominal fat and body composition; format: in vivo, broiler cockerels (Ross X Arbor Acre)
Procedure: as §1, §2, §3

[10] = Example 1: plasma hormone concentrations (radioimmunoassays)
Text: as §4, §5, §6

[11] = 1 ppm T3 and/or ncGH 100 μg/kg/day, 21 days
[12] = Group 2, with daily ncGH injection, 21 days
[13] = Group 2, with daily ncGH injection, N = 24

O=C(O)Cc1cc(I)c(Oc2ccc(O)c(I)c2)c(I)c1 [Triac]
metabolic activity of thyroid hormones (receptor): most active compounds of formula I

GRF: GH-releasing factor; human GRF is a 44 amino acid polypeptide hormone (YADAIFTNSYRKVLGQLSARKLLQDIMSRQQGESNQERGARARL-NH2; ends and bridges not checked; UniProt P01286 32-75, looked up)
plasma GH levels [1]: elevated plasma GH levels | growth rate and feed efficiency ([1]; TRH 1 or 10 μg/kg/day, GRF 10 μg/kg/day, alone or in combination): failed to stimulate growth rate or improve feed efficiency

glucagon
biological and metabolic activity in chickens [2]: the same biological and metabolic activity as endogenous glucagon

B1: pGH: purified porcine growth hormone (pGH) (protein, UniProt P01248 27-216, looked up)
Somatotropin: FPAMPLSSLFANAVLRAQHLHQLAADTYKEFERAYIPEGQRYSIQNAQAAFCFSETIPAPTGKDEAQQRSDVELLRFSLLLIQSWLGPVQFLSRVFTNSLVFGTSDRVYEKLKDLEEGIQALMRELEDGSPRAGQILKQTYDKFDTNLRSDDALLKNYGLLSCFKKDLHKAETYLRVMKCRRFVESSCAF
carcass fat content, reduction [3]: 18-25% | feed conversion, improvement [3]: 7-19% | growth rate, increase [3]: 10-14% | muscle mass, increase [3]: 24-36%

B2: GH: Purified natural chicken growth hormone (ncGH) (protein, UniProt P08998 26-216, looked up)
Somatotropin: TFPAMPLSNLFANAVLRAQHLHLLAAETYKEFERTYIPEDQRYTNKNSQAAFCYSETIPAPTGKDDAQQKSDMELLRFSLVLIQSWLTPVQYLSKVFTNNLVFGTSDRVFEKLKDLEEGIQALMRELEDRSPRGPQLLRPTYDKFDIHLRNEDALLKNYGLLSCFKKDLHKVETYLKVMKCRRFGESNCTI
average plasma GH concentration, fold over pre-injection [4]: 4 times | ADFC [5, 11]: 115.4 ± 3.5 g/bird/day | FTG [5, 11]: 2.18 ± .05 kg feed/kg gain | ADG ([5]; 1 ppm T3 in feed and/or ncGH 100 μg/kg/day i.m., 3 to 6 weeks, mean ±SEM of 3 pens): 53.0 ± 2.8 g/bird/day | effect on ADG, ADFC and FTG ratio ([5]; 21 days): not affected | ADFC (average daily feed consumption) [6, 12]: 115.8 ± 1.8 g/bird/day | ADG (average daily weight gain) [6, 12]: 57.0 ± 0.4 g/bird/day | FTG (feed-to-gain ratio) [6, 12]: 2.03 ± .02 kg feed/kg gain | BW (body weight) ([6]; Group 2: daily i.m. 100 ug ncGH/kg with CF, 1 ppm T3, 1 ppm T4 or 5 ppm TRH in feed, 3 to 6 weeks, mean ±SEM): 1.83 ± .04 kg | feed efficiency, improvement ([6]; vs FTG ratio of CF+BI group (P<0.05)): 9% | Body composition: Ash [7]: 2.20 ± .04 % BW | Body composition: Fat [7]: 14.5 ± .52 % BW | Body composition: Protein [7]: 18.1 ± .15 % BW | Body composition: Water [7]: 64.7 ± .51 % BW | effect on protein:fat ratio [8]: seemed to decrease the protein:fat ratio | Body Weight (BW), final ([9]; 1 ppm T3 and/or ncGH 100 μg/kg/day, 6 weeks-of-age, N = 12): 1.88 ± .051 kg | effect on final body weight, relative liver weight, abdominal fat ([9]; 6 weeks-of-age): did not affect growth performance, final body weight, relative liver weight or abdominal fat content | Abdominal Fat, relative weight ([9]; N = 12): 2.56 ± .178 % BW | Body composition: Ash ([9]; N = 12): 2.23 ± .058 % BW | Body composition: Fat ([9]; N = 12): 15.9 ± .32 % BW | Body composition: Protein ([9]; N = 12): 17.0 ± .17 % BW | Body composition: Water ([9]; N = 12): 63.7 ± .33 % BW | Liver, relative weight ([9]; N = 12): 2.74 ± .102 % BW | average plasma GH concentration ([10]; 4 hours post-injection of 100 μg ncGH/kg BW, Group 2): 62 ng/mL | average plasma GH concentration, fold over pre-injection ([10]; 4 hours post-injection of 100 μg ncGH/kg BW, Group 2 (P<0.05)): 3 times | I/G Molar Ratio [10, 13]: 2.28 | plasma Glucagon (G) [10, 13]: 298 pg/mL | plasma Insulin (I) [10, 13]: 1107 pg/mL
